Where “and” joins values, the source holds several entries; their conditions need not be identical. Equal values may be shown once.
Target: T1, human ribonucleotide reductase small subunit β′ (p53R2) (human, UniProt Q7LG56 1-351)
T1 sequence (looked up): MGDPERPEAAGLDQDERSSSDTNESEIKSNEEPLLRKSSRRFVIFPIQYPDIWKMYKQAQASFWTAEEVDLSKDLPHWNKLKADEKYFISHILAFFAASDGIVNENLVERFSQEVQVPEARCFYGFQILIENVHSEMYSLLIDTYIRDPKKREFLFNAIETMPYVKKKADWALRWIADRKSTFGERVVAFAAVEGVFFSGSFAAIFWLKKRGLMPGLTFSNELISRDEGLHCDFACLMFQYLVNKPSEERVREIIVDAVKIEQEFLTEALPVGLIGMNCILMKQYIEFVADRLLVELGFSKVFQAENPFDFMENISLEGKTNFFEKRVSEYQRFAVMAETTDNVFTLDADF
Test: SEC

B1: human ribonucleotide reductase large subunit α (enzyme, UniProt P23921 1-792, looked up)
chain: MHVIKRDGRQERVMFDKITSRIQKLCYGLNMDFVDPAQITMKVIQGLYSGVTTVELDTLAAETAATLTTKHPDYAILAARIAVSNLHKETKKVFSDVMEDLYNYINPHNGKHSPMVAKSTLDIVLANKDRLNSAIIYDRDFSYNYFGFKTLERSYLLKINGKVAERPQHMLMRVSVGIHKEDIDAAIETYNLLSERWFTHASPTLFNAGTNRPQLSSCFLLSMKDDSIEGIYDTLKQCALISKSAGGIGVAVSCIRATGSYIAGTNGNSNGLVPMLRVYNNTARYVDQGGNKRPGAFAIYLEPWHLDIFEFLDLKKNTGKEEQRARDLFFALWIPDLFMKRVETNQDWSLMCPNECPGLDEVWGEEFEKLYASYEKQGRVRKVVKAQQLWYAIIESQTETGTPYMLYKDSCNRKSNQQNLGTIKCSNLCTEIVEYTSKDEVAVCNLASLALNMYVTSEHTYDFKKLAEVTKVVVRNLNKIIDINYYPVPEACLSNKRHRPIGIGVQGLADAFILMRYPFESAEAQLLNKQIFETIYYGALEASCDLAKEQGPYETYEGSPVSKGILQYDMWNVTPTDLWDWKVLKEKIAKYGIRNSLLIAPMPTASTAQILGNNESIEPYTSNIYTRRVLSGEFQIVNPHLLKDLTERGLWHEEMKNQIIACNGSIQSIPEIPDDLKQLYKTVWEISQKTVLKMAAERGAFIDQSQSLNIHIAEPNYGKLTSMHFYGWKQGLKTGMYYLRTRPAANPIQFTLNKEKLKDKEKVSKEEEEKERNTAAMVCSLENRDECLMCGS
- stoichiometry N: 1.2 α:β' and 1 α:β' and 1.06 α:β'

— article PMC2917093 (Biochemistry, 2009)
